In article PMC3035870 (Molecular microbiology, 2009):
Substitutions are numbered along the chain they refer to. Names may count otherwise. Like-named read-outs stand apart in the source and are kept apart here.

B1: Δτ18, B. subtilis τ lacking the last 18 C-terminal residues (domain or fragment, B. subtilis (strain 168), UniProt P09122 1-545, looked up)
chain: MSYQALYRVFRPQRFEDVVGQEHITKTLQNALLQKKFSHAYLFSGPRGTGKTSAAKIFAKAVNCEHAPVDEPCNECAACKGITNGSISDVIEIDAASNNGVDEIRDIRDKVKFAPSAVTYKVYIIDEVHMLSIGAFNALLKTLEEPPEHCIFILATTEPHKIPLTIISRCQRFDFKRITSQAIVGRMNKIVDAEQLQVEEGSLEIIASAADGGMRDALSLLDQAISFSGDILKVEDALLITGAVSQLYIGKLAKSLHDKNVSDALETLNELLQQGKDPAKLIEDMIFYFRDMLLYKTAPGLEGVLEKVKVDETFRELSEQIPAQALYEMIDILNKSHQEMKWTNHPRIFFEVAVVKICQTSHQSAADLPEVDMLMKKIQQLEQEVERLKTTGIKAAAESPKKEAPRVPKGGKSNYKAPVGRIHEILKEATRPDLDLLRNSWGKLLAHLKQQNKVSHAALLNDSEPVAAGSAAFVLKFKYEIHCKMVAEDNNGVRTNLEQILESMLGKRMDLIGVPEAQWGKIREEFLEDHQQENEGSNEPAEEDP
B2: Bacillus subtilis τ subunit of the clamp-loader (DnaX) (natural protein, B. subtilis (strain 168), UniProt P09122 1-563, looked up)
chain: MSYQALYRVFRPQRFEDVVGQEHITKTLQNALLQKKFSHAYLFSGPRGTGKTSAAKIFAKAVNCEHAPVDEPCNECAACKGITNGSISDVIEIDAASNNGVDEIRDIRDKVKFAPSAVTYKVYIIDEVHMLSIGAFNALLKTLEEPPEHCIFILATTEPHKIPLTIISRCQRFDFKRITSQAIVGRMNKIVDAEQLQVEEGSLEIIASAADGGMRDALSLLDQAISFSGDILKVEDALLITGAVSQLYIGKLAKSLHDKNVSDALETLNELLQQGKDPAKLIEDMIFYFRDMLLYKTAPGLEGVLEKVKVDETFRELSEQIPAQALYEMIDILNKSHQEMKWTNHPRIFFEVAVVKICQTSHQSAADLPEVDMLMKKIQQLEQEVERLKTTGIKAAAESPKKEAPRVPKGGKSNYKAPVGRIHEILKEATRPDLDLLRNSWGKLLAHLKQQNKVSHAALLNDSEPVAAGSAAFVLKFKYEIHCKMVAEDNNGVRTNLEQILESMLGKRMDLIGVPEAQWGKIREEFLEDHQQENEGSNEPAEEDPLIAEAKKLVGADLIEIKD
B3: Geobacillus stearothermophilus replicative helicase DnaB (enzyme, G. stearothermophilus (strain NCA1503), UniProt Q9X4C9 1-454, looked up)
chain: MSELFSERIPPQSIEAEQAVLGAVFLDPAALVPASEILIPEDFYRAAHQKIFHAMLRVADRGEPVDLVTVTAELAASEQLEEIGGVSYLSELADAVPTAANVEYYARIVEEKSVLRRLIRTATSIAQDGYTREDEIDVLLDEADRKIMEVSQRKHSGAFKNIKDILVQTYDNIEMLHNRDGEITGIPTGFTELDRMTSGFQRSDLIIVAARPSVGKTAFALNIAQNVATKTNENVAIFSLEMSAQQLVMRMLCAEGNINAQNLRTGKLTPEDWGKLTMAMGSLSNAGIYIDDTPSIRVSDIRAKCRRLKQESGLGMIVIDYLQLIQGSGRSKENRQQEVSEISRSLKALARELEVPVIALSQLSRSVEQRQDKRPMMSDIRESGSIEQDADIVAFLYRDDYYNKDSENKNIIEIIIAKQRNGPVGTVQLAFIKEYNKFVNLERRFDEAQIPPGA
B4: Bacillus subtilis τ A550V mutant (natural protein, B. subtilis (strain 168), UniProt P09122 1-563, looked up)
chain: B2 chain with A550V

Legend:
Assay in all cases: SEC
SEC [1] = molecular target: the molecule itself
[2] = molecular target: B4
[3] = molecular target: B1
SEC [4] = molecular target: the molecule itself; remark: listed apart in the source

binding result [2]	binding result [3]	Binder	binding result (SEC [1])	binding result (SEC [4])
–	–	B1	binds	–
–	–	B2	binds	–
binds	binds	B3	binds	–
–	–	B4	–	binds
